# Measurements taken from article PMC10267556 (Nature Communications, 2023).
# Residue numbers refer to the chain shown, from its start.
# B1: TH132 monoclonal antibody (IgG) (antibody, V domains shown)
# VH: EVQLVESGGGLVQPGGSLRLSCAASGITVSRNYMSWVRQAPGKGLEWVSVMFAGGSTFYADSVKGRFTISRDNSKNTLYLQMNSLRAEDTAVYYCARDLGVVGATDYWGQGTLVTVSS
# VL: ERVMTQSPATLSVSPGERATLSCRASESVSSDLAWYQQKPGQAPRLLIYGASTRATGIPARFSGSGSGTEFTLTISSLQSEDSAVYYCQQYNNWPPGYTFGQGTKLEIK
# notes: copies: 2 + 2
# B2: TH132 (antibody, V domains shown)
# VH: B1 VH
# VL: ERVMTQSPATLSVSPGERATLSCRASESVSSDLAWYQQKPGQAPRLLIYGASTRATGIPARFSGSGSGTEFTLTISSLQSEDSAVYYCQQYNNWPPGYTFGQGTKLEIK
# notes: IgG1 (D2:p3)
# B3: TH236 (antibody, V domains shown)
# VH: QVQLVESGGGLVKPGGSLRLSCAASGFMISDSYMNWIRQPPGKGLEWVSYISSNGYAIYYGDSVKGRFTISRDNAKNFLYLQMNSLRVEDTAVYYCAREQPGGYYDSSGYRLDPWGQGILVTVSS
# VL: QSALTQPASVSGSPGQSITISCTGTSSDVGGYNYVSWYQQHPGKAPKLMIYDVSNRPSGVSNRFSGSKSGNTASLTISGLQAEDEADYYCSSYTSSSTLYVFGTGTKVTVL
# notes: IgG1 (D2:p3)
# B4: TH272 (antibody, V domains shown)
# VH: QITLKESGPTLVKPTQTLTLTCTFSGFSLSTGGVSVGWIRQPPGKALEWLALIYWDDDKRYSPSLESRLTITKDTSKNLVVLTLTNMDPVDTATYYCAHKTIPTIFDYWGQGTLVTVSS
# VL: QSALTQPASVSGSPGQSITISCTATSSDVGAYQYVSWYQQYPGKAPKLMIYEVSKRPSGVSNRFSGSKSGNTASLTISGLQAEDDAYYYCNSYTTSSVVFGGGTKLTVL
# notes: IgG1 (D2:p3)
# B5: TH281 (antibody, V domains shown)
# VH: B1 VH with G26E
# VL: not shown
# notes: IgG1 (D2:p3)
# B6: TH003 (antibody, V domains shown)
# VH: EVRLLESGGGLVQPGGSLRLSCAASGFTFNDYAMSWVRQAPGEGLEWVSTISYSGGSTYYADSVKGRFTISRDNSKNMLYLQMNSLRAEDTALYYCANGVATADWYFDLWGRGTLVTVSS
# VL: QSALTQPRSVSGSPGQSVTISCTGTSSDVGGYNYVSWFQHHPGKAPKLMIYDVTDRPSGVPDRFSGSKSGNTASLTISGLQAEDAADYYCCSYAGTYTVFGGGTKLTVL
# notes: IgG1 (D2:p3)
# B7: TH027 (antibody, V domains shown)
# VH: QITLKESGLTLVRPTQTLTLTCTFSGFSLINSGVGVGWIRQPPGKALEWLALIYWDDDKRYNPSLRSRLTISKATSKNQVVLTMTNMDPVDTATYYCTHRGPGHNTPIYFEFWGQGALVTVSS
# VL: QSVLTQSPSASGTPGQRVTISCSGSRSNIGSNFVYWFHQLPGTAPKLLIHSNDQRPSGVPDRFSGSNSGTSASLAISGLRSEDEADYYCAAWDDSLSSWVFGGGTKLTVL
# notes: IgG1 (D2:p3)
# Target: SARS-CoV-2 Omicron XBB spike protein (SARS-CoV-2 Omicron XBB, strain)
# Experiment: SPR
# Details: both partners purified
row,Binder,Kd
1,B1,~1000 pM

# Target: SARS-CoV-2 Omicron XBB.1.5 spike protein (SARS-CoV-2 Omicron XBB.1.5, strain)
# Experiment: SPR
# Details: both partners purified
row,Binder,Kd
1,B1,~1000 pM

# Target: T1, Spike (XBB.1.5) (SARS-CoV-2, Omicron XBB.1.5, strain)
# T1 construct: source: bought: Sino Biological
# Experiment: SPR
# Details: both partners purified
row,Binder,Kd
1,B2,1090 pM

# Target: T2, Spike (XBB) (SARS-CoV-2, Omicron XBB, strain)
# T2 construct: source: bought: Sino Biological
# Experiment: SPR
# Details: both partners purified
row,Binder,Kd
1,B2,1340 pM

# Target: T3, Spike (BA.1) (SARS-CoV-2, Omicron BA.1, strain)
# T3 construct: source: bought: Sino Biological
# Experiment: SPR
# Details: both partners purified
row,Binder,Kd
1,B3,86.7 pM
2,B4,1330 pM
3,B2,1260 pM
4,B5,517 pM
5,B6,2550 pM
6,B7,7060 pM

# Target: T4, RBD (BA.1) (SARS-CoV-2 Omicron BA.1, strain)
# T4 construct: source: bought: Sino Biological
# Experiment: SPR
# Details: both partners purified
row,Binder,Kd
1,B3,300 pM
2,B4,296 pM
3,B2,726 pM
4,B5,119 pM
5,B6,1290 pM
6,B7,838 pM

# Target: T5, Spike (BA.4/5) (SARS-CoV-2, Omicron BA.4/5, strain)
# T5 construct: source: bought: Sino Biological
# Experiment: SPR
# Details: both partners purified
row,Binder,Kd
1,B3,602 pM
2,B4,0.976 pM
3,B2,1.71 pM
4,B6,1590 pM
5,B7,1860 pM

# Target: T6, RBD (BA.4/5) (SARS-CoV-2, Omicron BA.4/5, strain)
# T6 construct: source: bought: Sino Biological
# Experiment: SPR
# Details: both partners purified
row,Binder,Kd
1,B3,621 pM
2,B4,45 pM
3,B2,484 pM
4,B5,7.81 pM
5,B6,484 pM
6,B7,752 pM
